*1 amine or outer side, *2 acyl side, *3 side chain or, on linkers, in order; H or OH if unused. Bridges are numbered along the chain shown (N, C = ends). The star is where a group is joined. X2 = (S)‑4‑Carboxy‑4‑(19-carboxynonadecanoylamino)butyryl, O=C(O)CCCCCCCCCCCCCCCCCCC(=O)N[C@@H](CCC(=O)*)C(=O)O; C20 diacid = O=C(O)CCCCCCCCCCCCCCCCCCC(=O)*; C18 diacid = O=C(O)CCCCCCCCCCCCCCCCC(=O)*; γGlu = O=C(O)[C@H](CCC(=O)[*:2])N[*:1]; AEEA = NCCOCCOCC(=O)O
T1: Amylin 3(a) receptor (human calcitonin receptor (CTa) with RAMP-3) (human, UniProt P30988 25-474; O60896 24-148, limits assumed)
T1 sequence (looked up) 1: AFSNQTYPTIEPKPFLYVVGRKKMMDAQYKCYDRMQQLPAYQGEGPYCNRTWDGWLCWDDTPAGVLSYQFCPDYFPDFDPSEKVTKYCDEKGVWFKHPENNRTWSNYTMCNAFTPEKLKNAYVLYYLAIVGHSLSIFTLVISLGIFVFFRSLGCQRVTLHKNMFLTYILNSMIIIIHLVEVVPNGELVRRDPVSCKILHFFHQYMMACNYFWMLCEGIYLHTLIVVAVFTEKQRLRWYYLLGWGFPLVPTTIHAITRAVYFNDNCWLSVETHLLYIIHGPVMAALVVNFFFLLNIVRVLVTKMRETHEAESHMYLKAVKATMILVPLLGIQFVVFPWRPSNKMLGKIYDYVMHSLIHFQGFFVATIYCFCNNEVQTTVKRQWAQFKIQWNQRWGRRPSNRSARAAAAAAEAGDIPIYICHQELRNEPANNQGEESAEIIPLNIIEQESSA
T1 sequence (looked up) 2: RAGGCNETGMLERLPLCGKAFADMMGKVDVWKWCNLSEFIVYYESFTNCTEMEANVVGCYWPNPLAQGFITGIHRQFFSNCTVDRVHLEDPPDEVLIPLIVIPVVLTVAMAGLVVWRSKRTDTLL


Target: T1, Amylin 3(a) receptor (human calcitonin …)
Experiment: cell-based or functional assay

Potency Luciferase [nM]	Binder
0.1	{C20 diacid-γGlu}-CNTATCATQRLADFLHHSSNNFGPILPPTNVGSNTY-NH2 (disulfide 1-6; SMILES CC[C@H](C)[C@H](NC(=O)[C@@H]1CCCN1C(=O)CNC(=O)[C@H](Cc1ccccc1)NC(=O)[C@H](CC(N)=O)NC(=O)[C@H](CC(N)=O)NC(=O)[C@H](CO)NC(=O)[C@H](CO)NC(=O)[C@H](Cc1c[nH]cn1)NC(=O)[C@H](Cc1c[nH]cn1)NC(=O)[C@H](CC(C)C)NC(=O)[C@H](Cc1ccccc1)NC(=O)[C@H](CC(=O)O)NC(=O)[C@H](C)NC(=O)[C@H](CC(C)C)NC(=O)[C@H](CCCNC(=N)N)NC(=O)[C@H](CCC(N)=O)NC(=O)[C@@H](NC(=O)[C@H](C)NC(=O)[C@@H]1CSSC[C@H](NC(=O)CC[C@H](NC(=O)CCCCCCCCCCCCCCCCCCC(=O)O)C(=O)O)C(=O)N[C@@H](CC(N)=O)C(=O)N[C@@H]([C@@H](C)O)C(=O)N[C@@H](C)C(=O)N[C@@H]([C@@H](C)O)C(=O)N1)[C@@H](C)O)C(=O)N[C@@H](CC(C)C)C(=O)N1CCC[C@H]1C(=O)N1CCC[C@H]1C(=O)N[C@H](C(=O)N[C@@H](CC(N)=O)C(=O)N[C@H](C(=O)NCC(=O)N[C@@H](CO)C(=O)N[C@@H](CC(N)=O)C(=O)N[C@H](C(=O)N[C@@H](Cc1ccc(O)cc1)C(N)=O)[C@@H](C)O)C(C)C)[C@@H](C)O) [N-alpha-[(S)-4-Carboxy-4-(19-carboxynonadecanoylamino)butyryl]-[Asp14,His17]-pramlintide (2-37)]
0.1	{C20 diacid-γGlu}-CNTATCATQRLANFLHHSSNNFEPILPPTNVGSNTY-NH2 (disulfide 1-6; SMILES CC[C@H](C)[C@H](NC(=O)[C@@H]1CCCN1C(=O)[C@H](CCC(=O)O)NC(=O)[C@H](Cc1ccccc1)NC(=O)[C@H](CC(N)=O)NC(=O)[C@H](CC(N)=O)NC(=O)[C@H](CO)NC(=O)[C@H](CO)NC(=O)[C@H](Cc1c[nH]cn1)NC(=O)[C@H](Cc1c[nH]cn1)NC(=O)[C@H](CC(C)C)NC(=O)[C@H](Cc1ccccc1)NC(=O)[C@H](CC(N)=O)NC(=O)[C@H](C)NC(=O)[C@H](CC(C)C)NC(=O)[C@H](CCCNC(=N)N)NC(=O)[C@H](CCC(N)=O)NC(=O)[C@@H](NC(=O)[C@H](C)NC(=O)[C@@H]1CSSC[C@H](NC(=O)CC[C@H](NC(=O)CCCCCCCCCCCCCCCCCCC(=O)O)C(=O)O)C(=O)N[C@@H](CC(N)=O)C(=O)N[C@@H]([C@@H](C)O)C(=O)N[C@@H](C)C(=O)N[C@@H]([C@@H](C)O)C(=O)N1)[C@@H](C)O)C(=O)N[C@@H](CC(C)C)C(=O)N1CCC[C@H]1C(=O)N1CCC[C@H]1C(=O)N[C@H](C(=O)N[C@@H](CC(N)=O)C(=O)N[C@H](C(=O)NCC(=O)N[C@@H](CO)C(=O)N[C@@H](CC(N)=O)C(=O)N[C@H](C(=O)N[C@@H](Cc1ccc(O)cc1)C(N)=O)[C@@H](C)O)C(C)C)[C@@H](C)O) [N-alpha-[(S)-4-Carboxy-4-(19-carboxynonadecanoylamino)butyryl]-[His17,Glu24]-pramlintide (2-37)]

Second part, the binder before the results:

Binder	Potency Luciferase [nM]
X2-ERECNTATCATQRLADFLHHSSNNFGAPLSSTNVGSNTY-NH2 (disulfide 4-9; SMILES CC(C)C[C@H](NC(=O)[C@H](CCCNC(=N)N)NC(=O)[C@H](CCC(N)=O)NC(=O)[C@@H](NC(=O)[C@H](C)NC(=O)[C@@H]1CSSC[C@H](NC(=O)[C@H](CCC(=O)O)NC(=O)[C@H](CCCNC(=N)N)NC(=O)[C@H](CCC(=O)O)NC(=O)CC[C@H](NC(=O)CCCCCCCCCCCCCCCCCCC(=O)O)C(=O)O)C(=O)N[C@@H](CC(N)=O)C(=O)N[C@@H]([C@@H](C)O)C(=O)N[C@@H](C)C(=O)N[C@@H]([C@@H](C)O)C(=O)N1)[C@@H](C)O)C(=O)N[C@@H](C)C(=O)N[C@@H](CC(=O)O)C(=O)N[C@@H](Cc1ccccc1)C(=O)N[C@@H](CC(C)C)C(=O)N[C@@H](Cc1c[nH]cn1)C(=O)N[C@@H](Cc1c[nH]cn1)C(=O)N[C@@H](CO)C(=O)N[C@@H](CO)C(=O)N[C@@H](CC(N)=O)C(=O)N[C@@H](CC(N)=O)C(=O)N[C@@H](Cc1ccccc1)C(=O)NCC(=O)N[C@@H](C)C(=O)N1CCC[C@H]1C(=O)N[C@@H](CC(C)C)C(=O)N[C@@H](CO)C(=O)N[C@@H](CO)C(=O)N[C@H](C(=O)N[C@@H](CC(N)=O)C(=O)N[C@H](C(=O)NCC(=O)N[C@@H](CO)C(=O)N[C@@H](CC(N)=O)C(=O)N[C@H](C(=O)N[C@@H](Cc1ccc(O)cc1)C(N)=O)[C@@H](C)O)C(C)C)[C@@H](C)O)	0.6
{C18 diacid-γGlu-AEEA-AEEA}-RCNTATCATQRLANFLHHSSNNFGPILPPTNVGSNTY-NH2 (disulfide 2-7; SMILES CC[C@H](C)[C@H](NC(=O)[C@@H]1CCCN1C(=O)CNC(=O)[C@H](Cc1ccccc1)NC(=O)[C@H](CC(N)=O)NC(=O)[C@H](CC(N)=O)NC(=O)[C@H](CO)NC(=O)[C@H](CO)NC(=O)[C@H](Cc1c[nH]cn1)NC(=O)[C@H](Cc1c[nH]cn1)NC(=O)[C@H](CC(C)C)NC(=O)[C@H](Cc1ccccc1)NC(=O)[C@H](CC(N)=O)NC(=O)[C@H](C)NC(=O)[C@H](CC(C)C)NC(=O)[C@H](CCCNC(=N)N)NC(=O)[C@H](CCC(N)=O)NC(=O)[C@@H](NC(=O)[C@H](C)NC(=O)[C@@H]1CSSC[C@H](NC(=O)[C@H](CCCNC(=N)N)NC(=O)COCCOCCNC(=O)COCCOCCNC(=O)CC[C@H](NC(=O)CCCCCCCCCCCCCCCCC(=O)O)C(=O)O)C(=O)N[C@@H](CC(N)=O)C(=O)N[C@@H]([C@@H](C)O)C(=O)N[C@@H](C)C(=O)N[C@@H]([C@@H](C)O)C(=O)N1)[C@@H](C)O)C(=O)N[C@@H](CC(C)C)C(=O)N1CCC[C@H]1C(=O)N1CCC[C@H]1C(=O)N[C@H](C(=O)N[C@@H](CC(N)=O)C(=O)N[C@H](C(=O)NCC(=O)N[C@@H](CO)C(=O)N[C@@H](CC(N)=O)C(=O)N[C@H](C(=O)N[C@@H](Cc1ccc(O)cc1)C(N)=O)[C@@H](C)O)C(C)C)[C@@H](C)O)	0.03
X2-ERECNTATCATQRLANFLHHSSQNFGAPLSSTNVGSNTY-NH2 (disulfide 4-9; SMILES CC(C)C[C@H](NC(=O)[C@H](CCCNC(=N)N)NC(=O)[C@H](CCC(N)=O)NC(=O)[C@@H](NC(=O)[C@H](C)NC(=O)[C@@H]1CSSC[C@H](NC(=O)[C@H](CCC(=O)O)NC(=O)[C@H](CCCNC(=N)N)NC(=O)[C@H](CCC(=O)O)NC(=O)CC[C@H](NC(=O)CCCCCCCCCCCCCCCCCCC(=O)O)C(=O)O)C(=O)N[C@@H](CC(N)=O)C(=O)N[C@@H]([C@@H](C)O)C(=O)N[C@@H](C)C(=O)N[C@@H]([C@@H](C)O)C(=O)N1)[C@@H](C)O)C(=O)N[C@@H](C)C(=O)N[C@@H](CC(N)=O)C(=O)N[C@@H](Cc1ccccc1)C(=O)N[C@@H](CC(C)C)C(=O)N[C@@H](Cc1c[nH]cn1)C(=O)N[C@@H](Cc1c[nH]cn1)C(=O)N[C@@H](CO)C(=O)N[C@@H](CO)C(=O)N[C@@H](CCC(N)=O)C(=O)N[C@@H](CC(N)=O)C(=O)N[C@@H](Cc1ccccc1)C(=O)NCC(=O)N[C@@H](C)C(=O)N1CCC[C@H]1C(=O)N[C@@H](CC(C)C)C(=O)N[C@@H](CO)C(=O)N[C@@H](CO)C(=O)N[C@H](C(=O)N[C@@H](CC(N)=O)C(=O)N[C@H](C(=O)NCC(=O)N[C@@H](CO)C(=O)N[C@@H](CC(N)=O)C(=O)N[C@H](C(=O)N[C@@H](Cc1ccc(O)cc1)C(N)=O)[C@@H](C)O)C(C)C)[C@@H](C)O)	0.1
